The target of one assay is T1, 6xHis-Bcl-xL^K87D (human, UniProt Q07817-1 1-233, K87D, RED-tris-NTA dye on the His tag (Monolith His-Tag Labeling Kit) in MST).
T1 construct: full-length Bcl-xL with K87D, made from pET45b-Bcl-xL by site-directed mutagenesis; also called full-length Bcl-xL^K87D; purified Bcl-xL^K87D; source: E. coli BL21, purified (NiNTA)
The assay is described as follows: MST; 6xHis-Bcl-xL proteins labelled with RED-tris-NTA kept constant at 50 nM; GST proteins titrated down from 15 µM to 5 nM; Monolith NT, 5% excitation power, medium MST power; triplicates. The settings on record: both partners purified.

In another assay the target is T2, 6xHis-Bcl-xL (human, UniProt Q07817-1 1-233, RED-tris-NTA dye on the His tag (Monolith His-Tag Labeling Kit) in MST).
T2 construct: full-length Bcl-xL cloned in pET45b in the 6xHis-encoding reading frame; also called wild-type 6xHis-Bcl-xL; full-length 6xHis-Bcl-xL; source: E. coli BL21, purified (NiNTA)
The description is as above. Particulars: both partners purified.

T1 sequence (Q07817 whole entry K87D): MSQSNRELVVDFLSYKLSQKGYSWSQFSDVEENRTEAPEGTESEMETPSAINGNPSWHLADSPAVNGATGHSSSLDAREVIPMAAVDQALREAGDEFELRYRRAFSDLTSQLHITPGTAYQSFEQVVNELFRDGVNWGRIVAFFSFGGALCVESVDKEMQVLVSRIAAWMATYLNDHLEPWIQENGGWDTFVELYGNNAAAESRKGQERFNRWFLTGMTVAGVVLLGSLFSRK
T2 sequence (Q07817 whole entry): as the sequence (Q07817 whole entry K87D) above, with D87K counted along it

B1: GST-mIP3R1-Fragment 3 (domain or fragment)
chain: SIHGVGELMTQVVLRGGGFLPMTPMAAAPEGNVKQAEPEKEDIMVMDTKLKIIEILQFILNVRLDYRISCLLCIFKREFDESNSQSSETSSGNSSQEGPSNVPGALDFEHIEEQAEGIFGGSEENTPLDLDDHGGRTFLRVLLHLTMHDYPPLVSGALQLLFRHFSQRQEVLQAFKQVQLLVTSQDVDNYKQIKQDLDQLRSIVEKSELWVYKGQGPDEPMDGASGENEHKKTEEGTSKPLKHESTSSYNYRVVKEILIRLSKLCVQESASVRKSRKQQQRLLRNMGAHAVVLELLQIPYEKAEDTKMQEIMRLAHEFLQNFCAGNQQNQALLHKHINLFLNPGILEAVTMQHIFMNNFQLCSEINERVVQHFVHCIETHGRNVQYIKFLQTIVKAEGKFIKKCQDMVMAELVNSGEDVLVFYNDRASFQTLIQMMRSERDRMDENSPLMYHIHLVELLAVCTEGKNVYTEIKCNSLLPLDDIVRVVTHEDCIPEVKIAYINFLNHCYVDTEVEMKEIYTSNHMWKLFENFLVDICRACNNTSDRKHADSILEKYVTEIVMSIVTTFFSSPFSDQSTTLQTRQPVFVQLLQGVFRVYHCNWLMPSQKASVESCIRVLSDVAKSRAIAIPVDLDSQVNNLFLKSHNIVQKTALNWRLSAR
As usually defined, the Kd is the concentration at which binding is half-saturated. Lower therefore signals higher affinity. For B1, the Kd in the assay with 6xHis-Bcl-xL^K87D was around 990 nM; with 6xHis-Bcl-xL, around 495 nM.

B2: GST-mIP3R1-LBD (domain or fragment)
chain: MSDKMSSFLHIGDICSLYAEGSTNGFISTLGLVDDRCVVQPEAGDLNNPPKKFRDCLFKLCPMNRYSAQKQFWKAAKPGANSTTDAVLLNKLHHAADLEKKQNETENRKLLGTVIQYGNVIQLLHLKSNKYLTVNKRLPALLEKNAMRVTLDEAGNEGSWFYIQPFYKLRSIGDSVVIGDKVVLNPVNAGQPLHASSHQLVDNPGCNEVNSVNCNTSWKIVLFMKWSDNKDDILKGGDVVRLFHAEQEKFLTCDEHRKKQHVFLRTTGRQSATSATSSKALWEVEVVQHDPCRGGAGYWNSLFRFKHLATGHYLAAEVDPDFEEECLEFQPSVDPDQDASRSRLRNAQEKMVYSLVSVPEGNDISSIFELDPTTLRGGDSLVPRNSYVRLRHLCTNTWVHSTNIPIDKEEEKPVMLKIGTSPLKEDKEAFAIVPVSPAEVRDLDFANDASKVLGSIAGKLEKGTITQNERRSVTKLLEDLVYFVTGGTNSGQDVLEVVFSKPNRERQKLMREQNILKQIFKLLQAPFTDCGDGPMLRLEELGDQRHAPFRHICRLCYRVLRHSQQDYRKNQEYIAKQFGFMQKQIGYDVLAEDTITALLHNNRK
Consider B2, for which the Kd with 6xHis-Bcl-xL^K87D was around 1170 nM; in the assay with 6xHis-Bcl-xL it was around 701 nM.
